Assay [1] addresses T1, S2 subunit of the SARS-CoV-2 spike protein (Sino Biological 40590-V08B), His tag (SARS-CoV-2, UniProt P0DTC2 686-1213).
T1 construct: domain: S2 subunit

The target of assay [2] is T2, RBD domain of the spike protein of SARS-CoV-2 virus (Acro Biosystems SPD-C52H3) (SARS-CoV-2, UniProt P0DTC2 319-537).
T2 construct: domain: RBD domain
Briefly: Affinity (SPR) by Octet; antigen not named, taken from the epitope column. A general note: In BLI a coated tip is dipped into the sample, and binding shifts an interference pattern.

We go through 21 molecules from patent publication US20250026813A1 (published 2025).

B1: IMPI-032 (antibody, V domains shown)
VH: QVQLQESGPGLVKPSGTLSLTCAVSGGSISSNKWWSWVRQPPGKGLEWIGEIDHSGSTMYNPSLKSRVTISVDKSKNQFSLKLNSVTAADTAVYYCTGEGYNWNYWGQGTRVTVSS
VL: DVVMTQSPLSLPVTLGQTASISCRSSQSLLYTDGNTYLSWFQQRPGQSPRRLIYKVSKWESGVPDRFSGSGSGTDFTLKISRVEAEDVGIYYCMQGTHWPLTFGGGTKVEIK
In the case of B1, the “HTRF deltaF” value in assay [1] is -8 deltaF.

B2: YANG-1119 (antibody, V domains shown)
VH: EVQLVESGGGLVKPGGSLRLSCAASGFTFSSYSMNWVRQAPGKGLEWVSSISTGSSYIFYADSVKGRFTISRDNAKNSLYLQMNSLRAEDTAVYYCAKTGDLPFFDYWGQGTLVTVSS
VL: QSALTQPASVSGSPGQSITISCTGTSSDVGRYNYVSWYQQHPGKAPKLMIYEVSNRPSGVSNRFSGSKSGNTASLTISGLQAEDEADYYCSSYTSSSTMVFGGGTKLTVL
Usually Kd stands for a measure of binding affinity in units of concentration. Low readings indicate tighter binding, high ones weaker binding. In assay [2], B2 yielded a Kd below 0.1 nM.

B3: YANG-1114 (antibody, V domains shown)
VH: EVHLVESVGGLVKPGGSLRLSCAASGFTFSSYSMNWVRQAPGKGLEWVSSISTGSSYIFYADSVKGRFTISRDNAKNSLYLQMNSLRAEDTAVYYCAKTGDLPFFDYWGQGTLVTVSS
VL: QSALTQPASVSGSPGQSITISCTGTSSDVGRYNYVSWYQQHPGKAPKLMIYEVSNRPSGVSNRFSGSKSGNTASLTISGLQAEDEADYYCSSYTSSSTMVFGGGTKLTVL
Molecule B3 registered a dissociation constant Kd in assay [2] below 0.1 nM.

B4: YANG-1115 (antibody, V domains shown)
VH: EVQLVESGGGLVKPGGSLRLSCAASGFTFSSYSMNWVRQAPGKGLEWVSSISTGSSYIFYADSVKGRFTISRDNAKNSLYLQMNSLRAEDTAVYYCAKTGDLPFFDYWGQGTLVTVSS
VL: QSALTQPASVSGSPGQSITISCTGTSSDVGRYNYVSWYQQHPGKAPKLMIYEVSNRPSGVSNRFSGSKSGNTASLTISGLQAEDEADYYCSSYTSSSTMVFGGGTKLSVL
In the case of B4, the Kd in assay [2] is below 0.1 nM.

B5: YANG-1113 (antibody, V domains shown)
VH: EVQLVESGGGLVKPGGSLRLSCAASGFTFSSYSMNWVRQAPGKGLEWVSSISTGSSYIFYADSVKGRFTMSRDNAKNSLYLQMNSLRAEDTAVYYCAKTGDLPFFDYWGQGTPVTVSS
VL: QSALTQPASVSGSPGQSITISCTGTSSDVGRYNYVSWYQQHPGKAPKLMIYEVSNRPSGVSNRFSGSKSGNTASLTISGLQAEDEADYYCSSYTSSSTMVFGGGTKLTVL
The molecule B5 displayed a Kd in assay [2] below 0.1 nM.

B6: YANG-1101 (antibody, V domains shown)
VH: QLQLQESGPGLVKPSETLSLTCTVSGGSISSSSYYWGWIRQPPGKGLEWIGSIYYSGSIYYNPSLKSRVTISVDTSKNQFSLKLSSVTAADTAVYYCASWFGEFLKADAFDIWGQGTMVTVSS
VL: QSALTQPASVSGSPGQSITISCTGTSSDVGGYSYVSWYQQHPGKAPKLMIYDVSKRPSGVSNRFSGSKSGNTASLTISGLQAEDEADYYCCSYAGGSTFVVFGGGTKLTVL
With B6, the Kd in assay [2] is below 0.1 nM.

B7: IMPI-059 (antibody, V domains shown)
VH: EVQLVESGGGLIQPGGSLRLSCAASGFTVSSIYMSWVRQAPGKGLEWVSIIYSRGSTDYADSVKGRFTISRDISKNTLYLQMNSLRAEDTAVYYCARDGTMVRGVHAFDIWGQGTMVTVSS
VL: DIQMTQSPPSLSASIGDRVTITCQASQDISNYLNWYQQKPGKAPKLLIYDASNLETGVPSRFSGSGSGTDFTLTISNLQPEDIVTYYCQQYDNLPSSFGQGTKLEIK
As for B7, the “HTRF deltaF” value in assay [1] was -2.7 deltaF.

B8: YANG-1111 (antibody, V domains shown)
VH: EVQLVESGGGLIQPGGSLRLSCAASGFTFSSYSINWVRQAPGKGLEWVSFISGSSTTIYYADSVKGRFTISRDSAKNSLYLQMNSLRDEDTAVYYCARGLRSSIAPRPDYFDSWGQGILVTVSS
VL: SYVLTQPPSVSVAPGKTARITCGGNNIGSKGVHWYQQKPGQAPVLVIYYDSDRPSGIPERFSGSNSGNTATLTISRVEAGDEADYSCQVWDSSSDHPVFGGGTKLTVQ
In assay [2], B8 registered a Kd below 0.1 nM.

B9: YANG-1112 (antibody, V domains shown)
VH: QITLKESGPTLVKPTQTLTLTCTFSGFSLSTGGVAVGWIRQPPGKALEWLAIIYWDDDKRYSPSLKSRLTITKDTSKNQVVLTMTNMDPVDTATYYCAHWGKDSFDIWGQGTMVTVSS
VL: SYELTQPPSVSVSPGQTARITCSGDALPRKYAYWYQQKSGQAPVLVIYEDNNRPSGIPERFSGSSSGTTATLTVSGAQVEDEADYYCYSTDTSGYVVFGGGTKLTVL
Regarding B9, in assay [2], the Kd was below 0.1 nM.

B10: YANG-1106 (antibody, V domains shown)
VH: EVQLVESGGGLIQPGGSLRLSCAASEFIVSRNYMSWVRQAPGKGLEWVSVIYSGGSTFYADSVRGRFTISRDNSKNTLYLQMNSLRAEDTAVYYCARDYGDQYFDYWGQGTLVTVSS
VL: EMVMTQSPATLSVSPGEKATLSCRASQTVSTNLAWYQQKPGQSPRLLIYGASTRATGIPARFSGSGSGTEFTLTISSLQSEDFAIYYCQQYVDWPRTFGQGTTVEIK
Regarding B10, the dissociation constant Kd in assay [2] was below 0.1 nM.

B11: YANG-1103 (antibody, V domains shown)
VH: EVQMVESGGGLIQPGGSLRLSCAASGLTVSSNYMSWVRQAPGKGLEWVSVIYSGGSTFYADSVKDRFTISRDNSKNTLYLQMNSLRAEDTAVYYCARENWNYVFDCWGQGTLVTVSS
VL: DIQLTQSPSFLSASVGDRVTITCWASQGISSYLAWYQQKPGKAPKLLIYAASTLQSGVPSRFSGSGSGTEFTLTISSLQPEDFATYYCQQLNSHPIIFGQGTRLEIK
B11: in assay [2], the Kd was below 0.1 nM.

B12: YANG-1109 (antibody, V domains shown)
VH: EVQLVESGGGLIQPGGSLRLSCGVSGLTVSRNYMNWVRQAPGKGLEWVSVIYSGGSTFYADSVKGRFTISRDNSKNTLYLQMISLRAEDSGVYYCAREGFGMDVWGQGTTVTVSS
VL: DIQLTQSPSFLSASVGDRVTITCWASQGISNYLAWYQQKPGKAPKLLIYSASTLQSGVPSRFSGSGSGTEFTLTISNLQPADIATYYCQLLNSHPCSFGQGTKLEIK
Molecule B12 displayed a dissociation constant Kd in assay [2] below 0.1 nM.

B13: YANG-1105 (antibody, V domains shown)
VH: EVQVVESGGGLIQPGGSLRLSCAASGITVSRNYMNWVRQAPGKGLEWVSVIYSGGSTFYADSVKGRFTISRDNSKNTLYLQMNSLRADDTGVYYCAREGYGMDVWGQGTTVTVSS
VL: DIQLTQSPSFLSASVGDRVTITCWASQGISSYLAWYQQKPGKAPKLLIYSASTLQSGVPSRFSGSGSGTEFTLTINSLQPEDFATYYCQQLNSHPCSFGQGTKLEIK
Take B13: the Kd in assay [2] was below 0.1 nM.

B14: IMPI-037 (antibody, V domains shown)
VH: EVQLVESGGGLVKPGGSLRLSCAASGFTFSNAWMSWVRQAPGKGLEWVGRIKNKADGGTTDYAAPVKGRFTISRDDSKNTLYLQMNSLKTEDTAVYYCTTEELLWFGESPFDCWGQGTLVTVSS
VL: DIQLTQSPSFLSASVGDRVTITCWASQGINSYLAWYQQKPGKAPKLLIYAASTLQSGVPSRFSGSGSGTEFTLTISSLQPEDFTTYYCQQFNDYPRTFGPGTKVEIK
On to B14, for which the “HTRF deltaF” value in assay [1] is -2 deltaF.

B15: YANG-1107 (antibody, V domains shown)
VH: EVQMVESGGGLIQSGGSLRLSCAASGLSVSSNYMSWVRQAPGKGLEWVAVIYSGGSIFYADSVKDRFTISRDNSKNTLYLQMNSLRAEDTAVYYCARENWNYVFDCWGQGTLVTVSS
VL: DIQLTQSPSFLSASVGDRVTITCWASQGISTYLAWYQQKPGKAPKLLIYAASTLQSGVPSRFSGSGSGTEFTLTISSLQPEDFATYYCQQLSSHPIIFGQGTRLEIK
B15 returned a Kd in assay [2] below 0.1 nM.

B16: YANG-1108 (antibody, V domains shown)
VH: QVQLVESGGGVVHPGRSLRLSCVVSGFTFSGYGMYWVRQAPGKGLEWVAVISKDGSDKYYADSVKGRFTISRDNSKNTLNLQMNSLRAEDTAVFYCAKERTFQGSGSYYNNYFYYGMDVWGQGTTVTVSS
VL: AIQLTQSPSSLSASVGDRVTITCRASQGISSALAWYQQKPGKAPNLLIYDASSLESGVPSRFSGSGFGTDFTLTINSLQPEDFASYYCQQFKSYPLTFGGGTKVEIK
On to B16, for which the Kd in assay [2] is below 0.1 nM.

B17: IMPI-022 (antibody, V domains shown)
VH: EVQLVESGGGLVQPGRSLRLSCAASGFTFDDYAMHWVRQAPGKGLEWVSGITWNSGSIGYADSVKGRFTISRDNAKNSLYLHMNSLRVEDTALYYCAKDLQGDYYYYGVDVWGQGTTVTVSS
VL: AIQLTQSPSSLSASVGDRVTITCRASQGISSALAWYQQKPGKAPKLLLYDASSLVSGVPSRFSGSRSGTDFTLTISSLQPEDFATYYCQQFISYPLTFGGGTRVEIK
B17: the “HTRF deltaF” value in assay [1] is -9.7 deltaF.

B18: IMPI-027 (antibody, V domains shown)
VH: QVQLQESGPGLVKPSQTLSLTCTVSGGSISSYGYYWNWIRQHPGKGLEWIGYIYYSGSTYYNPSLKSRVTISVDTSKNQLSLRLNSVSAADTAVYYCARDFGGNSNYFDYWGQGTLVTVSS
VL: AIQLTQSPSSLSASVGDRVTITCRTSQGISSALAWYQQKPGKAPKLLIYDASSLESGVPSRFSGSGSGTDFTLTISSLQPEDFATYYCQQFNSYPLTFGGGTKVEIK
On to B18, for which the “HTRF deltaF” value in assay [1] came out at 7.5 deltaF.

B19: IMPI-033 (antibody, V domains shown)
VH: QVQLQESGPGLVKPSQTLSLTCTVSGGSISSYGYYWSWIRQHPGKGLEWIGYIYYSGSTYYNPSLKSRVTMSVDTSKNQLSLRLNSVSAADTAVYYCARDFGGNSNYFDYWGQGTLVTVSS
VL: AIQLTQSPSSLSASVGDRVTITCRASQGISSALAWYQQKPGKAPNLLIYDASSLESGVPSRFSGSGSGTDFTLTISSLQPEDFATYYCQQFNSSPLTFGGGTKVEIK
In the case of B19, the “HTRF deltaF” value in assay [1] was -3.6 deltaF.

B20: YANG-1110 (antibody, V domains shown)
VH: QVQLAESGGGVVQPGRSLRLSCVVSGFTFSNYGMHWVRQAPGKGLEWVVFISNDGSNEDFVDSVKGRFTISRDNSKNTLYLQMNSLRAEDTAVYYCAKGGYFYGSGNYYYYYGMDVWGQGTTVTVSS
VL: QPVLTQSSSASASLGSSVKLTCTLSSVHSNHIIAWHQQQPGKAPRYLMKLEGSGRYSKGSGVPDRFSGSSSEADRYLTISNLQSEDEADYYCETWDNNTYVFGSGTKVTVL
As to B20, the dissociation constant (Kd) in assay [2] was below 0.1 nM.

B21: YANG-1102 (antibody, V domains shown)
VH: QVQLQESGPGLVKPSGTLSLTCAVSGGSISTTNWWSWVRQSPGRGLEWIGEIFHIGYTNYNPSLKSRVTISVDKSKNQFSLKLNSVTVADTAVYYCARRVVMDTAMAHFDCWGQGTLVTVSS
VL: QSVLTQPPSVSGAPGQRVTISCTGSSSNIGAGYDVHWYQHLPGTAPKLLIYININRPSGVPDRFSGSKSGTSASLVIAGLQAEDGADYYCQSYDSSLSGWVFGGGTRLTVL
In turn, B21 yielded a Kd in assay [2] below 0.1 nM.
